# Laboratory results: the supplement of paper PMC10724198
# ± gives the standard deviation of the averaged measurements.
# System: Saccharomyces cerevisiae
# Experiment: protein stability index of tFT-peptide fusion (C-terminal peptide) (PSI (0-1 scale)); higher = more stable (slower turnover)
# Conditions: temperature: 30 C
# Method: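 MPS profiling in S. cerevisiae of the yeast C-terminome library: the last 12 aa of each annotated ORF are fused to the C-terminus of a sfGFP-mCherry timer, after a GGGS linker. Cells are FACS-sorted into 8 mCherry/sfGFP bins and deep-sequenced. PSI runs from 0 (unstable) to 1 (stable); wild type and das1Δ backgrounds, two technical replicates each.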
# [1] = genetic background: das1 deletion
sequence,measurement,setting,value
LDAEYYIKFASK [ERD1 C-terminal 12 aa],protein stability index,[1],0.6942 ± 0.0061
same,protein stability index,genetic background: wild type,0.69 ± 0.024
LDFAKRKLKKKQ [TFB2 C-terminal 12 aa],protein stability index,[1],0.714 ± 0.015
same,protein stability index,genetic background: wild type,0.622 ± 0.034
LDMAVIDNTTHN [SDO1 C-terminal 12 aa],protein stability index,[1],0.712 ± 0.026
same,protein stability index,genetic background: wild type,0.682 ± 0.016
LDNIERDANDLS [LAM4 C-terminal 12 aa],protein stability index,[1],0.695 ± 0.0073
same,protein stability index,genetic background: wild type,0.678 ± 0.008
LDTLQTASQYLP [VID22 C-terminal 12 aa],protein stability index,[1],0.7056 ± 0.0017
same,protein stability index,genetic background: wild type,0.749 ± 0.079
LDYALVEMDKLF [UTP13 C-terminal 12 aa],protein stability index,[1],0.708 ± 0.033
same,protein stability index,genetic background: wild type,0.708 ± 0.039
LEELDIEEEYSD [ACL4 C-terminal 12 aa],protein stability index,[1],0.687 ± 0.059
same,protein stability index,genetic background: wild type,0.673 ± 0.0086
LEHGLKVRMDEE [HIS7 C-terminal 12 aa],protein stability index,[1],0.7083 ± 0.0038
same,protein stability index,genetic background: wild type,0.72 ± 0.06
LELLLAADYLSI [ELC1 C-terminal 12 aa],protein stability index,[1],0.698 ± 0.034
same,protein stability index,genetic background: wild type,0.682 ± 0.049
LELVLKNKEMEN [RSA3 C-terminal 12 aa],protein stability index,[1],0.684 ± 0.016
same,protein stability index,genetic background: wild type,0.706 ± 0.092
LEQGFKVVSAKE [YCS4 C-terminal 12 aa],protein stability index,[1],0.697 ± 0.057
same,protein stability index,genetic background: wild type,0.6812 ± 0.0067
LEQYEKTLVHDD [GCV3 C-terminal 12 aa],protein stability index,[1],0.6942 ± 0.00074
same,protein stability index,genetic background: wild type,0.678 ± 0.05
LERILHEMHPPA [EOS1 C-terminal 12 aa],protein stability index,[1],0.714 ± 0.012
same,protein stability index,genetic background: wild type,0.726 ± 0.025
LETLKKKKKRNN [MAK5 C-terminal 12 aa],protein stability index,[1],0.711 ± 0.014
same,protein stability index,genetic background: wild type,0.66348 ± 0.00034
LFFLVGLQLAIP [YGR022C C-terminal 12 aa],protein stability index,[1],0.324 ± 0.002
same,protein stability index,genetic background: wild type,0.327 ± 0.0074
LFQPIIVKPLRS [YHR007C-A C-terminal 12 aa],protein stability index,[1],0.599 ± 0.016
same,protein stability index,genetic background: wild type,0.625 ± 0.023
LFTAMRTVLFGK [CBP6 C-terminal 12 aa],protein stability index,[1],0.704 ± 0.0044
same,protein stability index,genetic background: wild type,0.72 ± 0.14
LGYTDDEIYNRQ [SER2 C-terminal 12 aa],protein stability index,[1],0.706 ± 0.026
same,protein stability index,genetic background: wild type,0.681 ± 0.036
LILHFVCLHFIN [OST2 C-terminal 12 aa],protein stability index,[1],0.544 ± 0.017
same,protein stability index,genetic background: wild type,0.184 ± 0.027
LIRKMYYKNLKK [SSL2 C-terminal 12 aa],protein stability index,[1],0.693 ± 0.05
same,protein stability index,genetic background: wild type,0.757 ± 0.028
LIYLNETLGTRL [IRC19 C-terminal 12 aa],protein stability index,[1],0.705 ± 0.015
same,protein stability index,genetic background: wild type,0.671 ± 0.003
LKDEKRGDNVLA [THS1 C-terminal 12 aa],protein stability index,[1],0.6983 ± 0.0068
same,protein stability index,genetic background: wild type,0.67 ± 0.018
LKHNGQRKLAST [ANT1 C-terminal 12 aa],protein stability index,[1],0.685 ± 0.034
same,protein stability index,genetic background: wild type,0.701 ± 0.033
LKKPRSGFHVIV [YFR006W C-terminal 12 aa],protein stability index,[1],0.69 ± 0.027
same,protein stability index,genetic background: wild type,0.6371 ± 0.0052
LKQENAYLLIRR [RPB8 C-terminal 12 aa],protein stability index,[1],0.693 ± 0.0081
same,protein stability index,genetic background: wild type,0.68 ± 0.01
LKRTAIQFAAFS [SEC5 C-terminal 12 aa],protein stability index,[1],0.6855 ± 0.0022
same,protein stability index,genetic background: wild type,0.6844 ± 0.0012
LLIQEEMKLKEV [YPK9 C-terminal 12 aa],protein stability index,[1],0.7188 ± 0.0014
same,protein stability index,genetic background: wild type,0.703 ± 0.022
LLLPITSSLLFI [MIN4 C-terminal 12 aa],protein stability index,[1],0.618 ± 0.011
same,protein stability index,genetic background: wild type,0.62 ± 0.021
LLMVGVPLLFSS [YPR159C-A C-terminal 12 aa],protein stability index,[1],0.6249 ± 0.00071
same,protein stability index,genetic background: wild type,0.6282 ± 0.0051
LLSLLRVLKQPH [CSS1 C-terminal 12 aa],protein stability index,[1],0.675 ± 0.023
same,protein stability index,genetic background: wild type,0.66 ± 0.011
LMGAALAAVMLL [FIT3 C-terminal 12 aa],protein stability index,[1],0.6841 ± 0.0054
same,protein stability index,genetic background: wild type,0.6409 ± 0.0026
LMNAQSNETKLN [PTC6 C-terminal 12 aa],protein stability index,[1],0.7111 ± 0.0056
same,protein stability index,genetic background: wild type,0.692 ± 0.033
LMPSASLQDFYG [VID27 C-terminal 12 aa],protein stability index,[1],0.73 ± 0.014
same,protein stability index,genetic background: wild type,0.726 ± 0.014
LNFFAEETLDFE [EAT1 C-terminal 12 aa],protein stability index,[1],0.734 ± 0.033
same,protein stability index,genetic background: wild type,0.689 ± 0.033
LNLPWKRKKTTI [YCR101C C-terminal 12 aa],protein stability index,[1],0.707 ± 0.017
same,protein stability index,genetic background: wild type,0.686 ± 0.019
LNPIRSLRYCNY [YPP1 C-terminal 12 aa],protein stability index,[1],0.7156 ± 0.0026
same,protein stability index,genetic background: wild type,0.629 ± 0.024
LNSIDPALISKY [AFT2 C-terminal 12 aa],protein stability index,[1],0.744 ± 0.035
same,protein stability index,genetic background: wild type,0.741 ± 0.036
LQALIIVQVMFS [YLL059C C-terminal 12 aa],protein stability index,[1],0.128 ± 0.025
same,protein stability index,genetic background: wild type,0.157 ± 0.013
LQAVAVAVSTKK [FAS2 C-terminal 12 aa],protein stability index,[1],0.659 ± 0.01
same,protein stability index,genetic background: wild type,0.65 ± 0.033
LQESKSQEKNKI [MRX19 C-terminal 12 aa],protein stability index,[1],0.7135 ± 0.0016
same,protein stability index,genetic background: wild type,0.782 ± 0.06
LQVKAVRAKLDE [ALD4 C-terminal 12 aa],protein stability index,[1],0.699 ± 0.031
same,protein stability index,genetic background: wild type,0.68 ± 0.037
